The supplement of paper PMC9170038

Test system: MS2 coat protein
Assay: apparent KD of MS2 coat protein; higher = weaker reporter binding
Conditions: Eterna round: R107; input ligand: arginine 13.2 mM
Protocol: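 RNA-MaP round R107: designed RNA switches with theophylline, tryptophan, arginine or FMN aptamers are transcribed on-chip within common flanks. They are titrated with SNAP-549-labelled MS2 coat protein in RNA-MaP buffer (100 mM Tris pH 7.5, 80 mM KCl, 4 mM MgCl2), without ligand or with the indicated ligand. Median apparent KD per design.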

Point of comparison: “CAUAUAUAUGGAAGGAGCGCGAUUACAUAACAUGAGGAUCACCCAUGUAAGAAAUUAUUCAUGCAGGUAGGUCGCCAUAUAUAUG [Same State Arginine B GF6]”, “apparent KD of MS2 coat protein” value 29.3 nM. Against it:
- AAUUCCUCACAUGAGGAUCACCCAUGUGAAGGAGCGCCGAAUAAGGCAGGUAGGUCGCACAUGGAAACCGCUACGAAAGUAGUAA [XArg-A 2 NuV2] — 1.6-fold lower, 18.7 nM
- GCACGAGUAAGACCUGACUUCAACAAUGAUACCAGACUAGUAAACGUCCCUUGGCAGCAUCAGACAUGAGGAUCACCCAUGUGGC [theeternabot_exclusion_MS2_Theo_A_44] — within 1.5-fold, 26.4 nM
- AGCCCUGUACUAGAUACCAGCUACAUGAGGAUCACCCAUGUACGAUAAGACUGUCCAUGUAGCCCUUGGCAGCUGCUCGCAUGUA [#13 Exclusion-TheophyllineB] — within 1.5-fold, 24.1 nM
- GAUAUGUUUCGAAGGAGCGGCCCUUGAUCCUCAUGAGACAUGAGGAUCACCCAUGUCUCGGGCCAGGUAGGUCGCGAAAUAUAUC [Astros-omei-mod4] — within 1.5-fold, 30.3 nM
- GGACUAACCAGAAGGAGCGACGCGCAGAAACUGCAAAAUCCUCCACACGAGGAUCACCCGUGUCAGGUAGGUCGCUGGUUAGUCG [ArgXB 16 #CuTurnoff #MS2Left #StaticStem #Blueprint] — within 1.5-fold, 30.2 nM
- ACGUCCAGGUUAAUCGUGGGCAUGGUCGAUACCAGUAUUUUAAUCUACCCUUGGCAGCGACAUGAGGAUCACCCAUGUGCGAUGA [XTheo A #16] — 2.1-fold lower, 13.8 nM
- ACAUGAGGAUCACCCAUGUACAUGAGGGAAGGAGCGGUACAUGUGCCAGGUAGGUCGCCCAACAGCAUCAGCCAUGUACAACGGA [xxbmullin] — within 1.5-fold, 29 nM
- AUGCACAUCUAGGAUACCAGCACCCUUAUGUCACUAGUUAACAUGAGGAUCACCCAUGUUUGCCCUUGGCAGCCUCAUUGACCAU [theeternabot_exclusion_MS2_Theo_B_9] — 2-fold higher, 59.5 nM
- UGACAUUGCUCAGAUACCAGACAUGAGGAUCACCCAUGUGCCAAAACGUACUAAAUAAAUGUCCCUUGGCAGCUGAGCAAUGUCU [TheoBX 13 #MS2Left #Theo2] — 2.2-fold lower, 13.5 nM
- GAGUCCACGGCGGCCGCCACUCGCGGCGCCACAUGGCGCCGGGACAUGAGGAUCACCCAUGUCCCGAGGACCGGGCCGAUCCUUA [Same State Typrtophan B GF3] — 2.6-fold lower, 11.2 nM
- CCUAUCCAGUCGGCCGCCACUGAAAACAGUGGGUGAACAUGAGGAUCACCCAUGUAAUAAUAAAACAGGACCGGGACUGUAUAGG [Ex Tryptophan B 22] — 9.9-fold higher, 290 nM
- GCCGCUGCCGCGAUAUGUAUGGGUGUGUAACGAGGACCGGUACGGCCGCCACUCGCGAUCGCACAUGAGGAUCACCCAUGUGUCC [Exclusion Tryp A GF18] — within 1.5-fold, 26.5 nM

Same assay, conditions: Eterna round: R107; input ligand: none

Point of comparison: “GAGUCCACGGCGGCCGCCACUCGCGGCGCCACAUGGCGCCGGGACAUGAGGAUCACCCAUGUCCCGAGGACCGGGCCGAUCCUUA [Same State Typrtophan B GF3]”, “apparent KD of MS2 coat protein” value 21 nM. Against it:
- AAUUCCUCACAUGAGGAUCACCCAUGUGAAGGAGCGCCGAAUAAGGCAGGUAGGUCGCACAUGGAAACCGCUACGAAAGUAGUAA [XArg-A 2 NuV2] — within 1.5-fold, 19.9 nM
- CAUAUAUAUGGAAGGAGCGCGAUUACAUAACAUGAGGAUCACCCAUGUAAGAAAUUAUUCAUGCAGGUAGGUCGCCAUAUAUAUG [Same State Arginine B GF6] — within 1.5-fold, 24 nM
- GAUAUGUUUCGAAGGAGCGGCCCUUGAUCCUCAUGAGACAUGAGGAUCACCCAUGUCUCGGGCCAGGUAGGUCGCGAAAUAUAUC [Astros-omei-mod4] — within 1.5-fold, 19.2 nM
- GGACUAACCAGAAGGAGCGACGCGCAGAAACUGCAAAAUCCUCCACACGAGGAUCACCCGUGUCAGGUAGGUCGCUGGUUAGUCG [ArgXB 16 #CuTurnoff #MS2Left #StaticStem #Blueprint] — within 1.5-fold, 26.6 nM
- ACGUCCAGGUUAAUCGUGGGCAUGGUCGAUACCAGUAUUUUAAUCUACCCUUGGCAGCGACAUGAGGAUCACCCAUGUGCGAUGA [XTheo A #16] — within 1.5-fold, 16.4 nM
- ACAUGAGGAUCACCCAUGUACAUGAGGGAAGGAGCGGUACAUGUGCCAGGUAGGUCGCCCAACAGCAUCAGCCAUGUACAACGGA [xxbmullin] — 2.7-fold higher, 56.8 nM
- CCUAUCCAGUCGGCCGCCACUGAAAACAGUGGGUGAACAUGAGGAUCACCCAUGUAAUAAUAAAACAGGACCGGGACUGUAUAGG [Ex Tryptophan B 22] — 22-fold higher, 452 nM

Same assay, conditions: Eterna round: R107; input ligand: theophylline 20 uM

Point of comparison: “CCUAUCCAGUCGGCCGCCACUGAAAACAGUGGGUGAACAUGAGGAUCACCCAUGUAAUAAUAAAACAGGACCGGGACUGUAUAGG [Ex Tryptophan B 22]”, “apparent KD of MS2 coat protein” value 458 nM. Against it:
- AAUUCCUCACAUGAGGAUCACCCAUGUGAAGGAGCGCCGAAUAAGGCAGGUAGGUCGCACAUGGAAACCGCUACGAAAGUAGUAA [XArg-A 2 NuV2] — 18-fold lower, 25.3 nM
- CAUAUAUAUGGAAGGAGCGCGAUUACAUAACAUGAGGAUCACCCAUGUAAGAAAUUAUUCAUGCAGGUAGGUCGCCAUAUAUAUG [Same State Arginine B GF6] — 13-fold lower, 35.3 nM
- GCACGAGUAAGACCUGACUUCAACAAUGAUACCAGACUAGUAAACGUCCCUUGGCAGCAUCAGACAUGAGGAUCACCCAUGUGGC [theeternabot_exclusion_MS2_Theo_A_44] — 12-fold lower, 39.1 nM
- AGCCCUGUACUAGAUACCAGCUACAUGAGGAUCACCCAUGUACGAUAAGACUGUCCAUGUAGCCCUUGGCAGCUGCUCGCAUGUA [#13 Exclusion-TheophyllineB] — 11-fold lower, 41.3 nM
- GAUAUGUUUCGAAGGAGCGGCCCUUGAUCCUCAUGAGACAUGAGGAUCACCCAUGUCUCGGGCCAGGUAGGUCGCGAAAUAUAUC [Astros-omei-mod4] — 14-fold lower, 32.1 nM
- GGACUAACCAGAAGGAGCGACGCGCAGAAACUGCAAAAUCCUCCACACGAGGAUCACCCGUGUCAGGUAGGUCGCUGGUUAGUCG [ArgXB 16 #CuTurnoff #MS2Left #StaticStem #Blueprint] — 13-fold lower, 36.1 nM
- ACGUCCAGGUUAAUCGUGGGCAUGGUCGAUACCAGUAUUUUAAUCUACCCUUGGCAGCGACAUGAGGAUCACCCAUGUGCGAUGA [XTheo A #16] — 26-fold lower, 17.9 nM
- ACAUGAGGAUCACCCAUGUACAUGAGGGAAGGAGCGGUACAUGUGCCAGGUAGGUCGCCCAACAGCAUCAGCCAUGUACAACGGA [xxbmullin] — 5.2-fold lower, 87.4 nM
- AUGCACAUCUAGGAUACCAGCACCCUUAUGUCACUAGUUAACAUGAGGAUCACCCAUGUUUGCCCUUGGCAGCCUCAUUGACCAU [theeternabot_exclusion_MS2_Theo_B_9] — 4.9-fold lower, 92.7 nM
- UGACAUUGCUCAGAUACCAGACAUGAGGAUCACCCAUGUGCCAAAACGUACUAAAUAAAUGUCCCUUGGCAGCUGAGCAAUGUCU [TheoBX 13 #MS2Left #Theo2] — 32-fold lower, 14.4 nM
- GAGUCCACGGCGGCCGCCACUCGCGGCGCCACAUGGCGCCGGGACAUGAGGAUCACCCAUGUCCCGAGGACCGGGCCGAUCCUUA [Same State Typrtophan B GF3] — 17-fold lower, 26.6 nM
- GCCGCUGCCGCGAUAUGUAUGGGUGUGUAACGAGGACCGGUACGGCCGCCACUCGCGAUCGCACAUGAGGAUCACCCAUGUGUCC [Exclusion Tryp A GF18] — 6.3-fold lower, 72.4 nM

Same assay, conditions: Eterna round: R107; input ligand: theophylline 2 mM

Point of comparison: “AAUUCCUCACAUGAGGAUCACCCAUGUGAAGGAGCGCCGAAUAAGGCAGGUAGGUCGCACAUGGAAACCGCUACGAAAGUAGUAA [XArg-A 2 NuV2]”, “apparent KD of MS2 coat protein” value 22.1 nM. Against it:
- CAUAUAUAUGGAAGGAGCGCGAUUACAUAACAUGAGGAUCACCCAUGUAAGAAAUUAUUCAUGCAGGUAGGUCGCCAUAUAUAUG [Same State Arginine B GF6] — within 1.5-fold, 27 nM
